Experimental data taken from US20190290758A1.

Target: ELAVL4 1-117 with the canonical isoAsp-prone sites N7, N15 and D36 mutated (human)

on-blot PIMT-catalyzed methylation with 3H-S-adenosyl methionine: 25%
Substance: recombinant rat repair enzyme protein-L-isoaspartate O-methyltransferase (PIMT) (from UniProt P22062)
